Experimental findings from the nanobody polyreactivity screen of Harvey et al. (2022) are described below.

The series can be described thus: yeast display, Sf9 membrane polyspecificity reagent, FACS + sequencing; frameworks hold sequencing errors. In a few lines:
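Using colony PCR, genes from sorted yeast display clones were amplified, then sequenced on MiSeq at 2 × 250 and filtered by CDR length. The clones had been stained with 10% biotinylated, detergent-solubilized Sf9 membrane reagent for 1 hour at 4 °C and sorted by FACS into low and high (top ~1%) gates on anti-HA and streptavidin fluorescence. Polyreactivity labels come from the gate of origin.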
For the sequence “QVQLVESGGGLVQAGGSLRLSCAASGYNFHDYAMGWYRQAPGKERELFAAISKRGGSTYYADSVKGRFTISRDNAKNTVYLQMNSLKPEDTAVYYCAKGGPHRGTGLNDYWGQCTQVTVSS”, the “polyreactivity (PSR sort gate)” value is “high polyreactivity”.
As for “QVQLVESVGGLVQAGGSLRLSCAASGSTSSYYTMGWYRQAPGKERELVAYADSVKGRFTISRDNAKNTVYLQMNSLKPEDTAVYYCAAPRTYYSELTSPYDYWGQGTQVTVSS”, the entry is “low polyreactivity”.
As to “QVQLVESGGGLVQAGGSLRLSCAASGFTFAYNAMGWYRQAPGKERELVAAISRSGARTYYADSVKGRFTISRDNAKNTVYLQMNSLKPEDTAVYYCNARDYTLYGYWGQGTQVTVSS”, the “polyreactivity (PSR sort gate)” value is given as “high polyreactivity”.
On to “QVQLVESGGGLVQAGGSLRLSCAASGFIFYINAMVWYRQAPGKERELVAAITNVGSTNYADSVKGRFTISRDNAKNTVYLQMNSLKPEDTAVYYCAAEKGLVALVYKYDYWGQGTQVTVSS”, for which the “polyreactivity (PSR sort gate)” value is on record as “low polyreactivity”.
Consider “QVQLVESGGGLVQAGGSLRLSSAASGRTFRYYAMGWYRQAPGKERELVASISDGGSTNYADSVKGRFTISRDNAKNTVYLQMNSLKPEDTAVYYCAADGWWQYDYWGQGTQVTVSS”, for which the “polyreactivity (PSR sort gate)” value was “low polyreactivity”.
For “QVQLVESGGGLVQAGGSLRLSCAASGSIFRPNAMGWYRQPPGKERELVALITRGGSTNYADSVKGRFTISRDNAKNTVYLQMNSLKPEDTAVYYCAVDLWYPPVWVRVSEFDYWGQGTQVTVSS” the value was “low polyreactivity”; for “QVQHVESGRGLVQAGGSLRLSCAASGFIFRLYAMGWYRQAPGKERELVAAISRGGSTTYADSVKGRFTISRDNAKNTVYLQMYSLKPEDTAVYYCATEGDLVAYLYDYWGQGTQVTVSS”, “low polyreactivity”.
As for “QVQLVESGGGLVQAGGSLRLSCAASGFTFNLYDMGWYRQAPGKERELVAAINWSGGTYYADSVKGRFTISRDNAKNTVYLQMNSLKPEDPAVYYCAADFPYTPWSYHHHVWSPDFDYWGQGTQVTVSS”, the entry is “low polyreactivity”; as for “QVQLVESGGGLVQAGGSLRLSCAASGIIFGWYAMGWYRQAPGKERELVAAISYSGGSTYYADSVKGRFTISRDNAKNTVYLQMNSLKPEDTAVYYCAVQRYWGQGTQVTVSS”, “high polyreactivity”; as for “QVQLVESGGGLVQAGGSLRLSCAASGITFDINAMGWYRQAPGKERELVAAISKSGRTYYADSVKGRFTISRDNAKNTVYLQMNSLKPEDTAVYYCNKVPYPSNDYWGQGTQVTVSS”, “high polyreactivity”.
As for “QVQLVESGGGVVQARGSLRLSCAASGRIFDNAMGWYRQAPGKERELVAAISGGSTYYADSVKGRFTISRDNAKNTVYLQMHSLKPEDTAVYYCNTDPLGRTVVYGGDDYWGQGTQVTVSS”, the “polyreactivity (PSR sort gate)” value is “low polyreactivity”.
In the case of “QVQLVESGGGLVQAGGSLRLSCAASGLIFSRNAMGWYRQAPGKERELVAAISTGGSTYYADSVKGRFTISRDNAKNTVYLQMNSLKPEATAVYDCAAAPGYIYEYWGQGTQVTVSS”, the “polyreactivity (PSR sort gate)” value is listed as “low polyreactivity”.
For “QVQLVDSGGGLVQAGGSLRLSCAASGSTFRYNAMGWYRQAPGKERELVAAIDKRGDSTYADSVKGRFTISRDNAKNTVYLQLNSLKPEDTAVYYCAADSDSKYNYGFLWDTYEYWGQGTQVTVSS” the value was “low polyreactivity”; for “QVQLVESGGGLVQAGGSLRLSSAASGSTFEIYAMGWYRQAPGKERDLVAGITTSDGRTDYADSVKGRFTISRDNAKNTVYLLMNILKPEDTAVYYCAKVTLGYTWYQYDYWGQGTQVTVSS”, “low polyreactivity”.
With “QVQLVESGGGLVQAGGSLRLSCAASGITFFVYAMGWYRQAPGKERELVAAISSTASTNYADSVKGRFTISRDNAKYTVYLQMNSRKPEDTAVYYCNAGVWSLGTYWQFDYWGQGTQVTVSS”, the “polyreactivity (PSR sort gate)” value is listed as “high polyreactivity”.
For the sequence “QVQLVESGGGLVQAGGSLRLSCAATGRTFQDNAMGWYRQAPGKERELVAAISWRGGSTNYADSVKGRFTISRDNAKNTVYLQMNSLKPEDTAVYYCNRDPRKYGKLDYWGQGTQVTVSS”, the “polyreactivity (PSR sort gate)” value is recorded as “low polyreactivity”.
As to “QVQLVESGGGLVQAGGSLRLSCAASGFIYYAMGWYRQAPGKERELVAAISRGGTTYYADSVKGRFTISRDNAKNTVYLQMNSLKPEVTAVSYCNAVGYRAVGYKTGYARYGYWGQGTQVTVSS”, the “polyreactivity (PSR sort gate)” value is given as “high polyreactivity”.
As for “QVQLVESGGGLVQAGGSLRLSCAASGSTQTVNVMGWYRQAPGKEREFVAAINDSGSTYYADSVKGRFTISRDNAKNTVYLQMNSLKPEDTAVYYCATYYWLGLSLYDYWGQGTQVTVSS”, the entry is “low polyreactivity”; as for “QVQLVESGGGLVQAGGSLRLSCAASGIIFGRYAMGWYRQSPGKERELVAAISSRGGSTYYADSVKGRFTISRDNAKNTVYLQMNSLKPEDTAVYYCAATWCFLRGSTKYYYWGQGTQVTVSS”, “high polyreactivity”; as for “QVQLVESGGGLVQAGGSLRLTCAASGRTFRVYAMGWYRQAPGKERELVATITSSGGSTYYADSVKGRFTISRDNAKKTVYLQMNSLKREDTAVYYCNVSVYYNYDSSYDYWGQGTQVTVSS”, “low polyreactivity”.
For “QVQLVESGGGLVQAGGRLRLSCAASGSIFGTNAMGWYRQAPGKERELVAAISSSGTSTYYADSVKGRFTISRDNAKNTVYLQMNSLKPEDTAVYYCAAATNWGGEYWGQGTQVTVSS” the value was “high polyreactivity”; for “QVQLVESGGGLVQAGGSLSLSCPASGRTFSTNAMGWYRQAPGKEREMVAAISARGGSTYYADSVKGRFTISRDNAKNTVYLQMNSLKPEDTAVEYCALRPGRYSYAFDFWGQGTQVTVSS”, “high polyreactivity”; for “QVQLVESGGRLVQAGGSLRLSCAASGSIFTFYALGWYRQAPGKESELVAAISYRGGSTYYADSVRGRFTISRDNAKNTVYLQMNRLKPEDTAVYFCAAGRFPVFFQGYRMEYWGQGTQVTVSS”, “low polyreactivity”.
For “QVQLVESGGGLFQAGGSLRLSCAASGFIFYPNAMGWYRQAPGKEREWVAAITDSGGSTYYADSVKGRFTISRDNAKNTVYLQMNSLKPEDTAVYYCNADYGGYYWTWGYDYWGQGTQVTVSS” the value was “low polyreactivity”.
For “QVQLVESGGGLVQAGGSLRLSCAASGRTFVYNAMGWYRQAPGKERELVAAISSDGASTYYADSVKGRFTISRDNAKNTVYLQMNSLKPEDTAVYYCAADFSYYSYEHYYWGQGTKVTVSS”, the “polyreactivity (PSR sort gate)” value is listed as “low polyreactivity”.
As for “QVQLVESGGGLVQAGGSLRLSCAASGFTFGRYAMGWYRQAPGKERELVAAITWSGGTTTYYADSVKGRFTISRDNAKNTVYLQMNSLKPEDTAVYYSAADLYFYIYSYNYWGQGTQVTVSS”, the entry is “low polyreactivity”; as for “QVQLVESGGGLVQAGGSLRLSCAASGSTVGHYAMGWYRQAPGKERELVAAISVSGGSTYYADSVKGRFTISRDHAKNTVYLQMNSLKPEDTAVYYCAREYAHLSFLSTSSDYWGQGTQVTVSS”, “low polyreactivity”.
As for “QVQLVESGGGLVQAGGSLRLSSAASGRTFYRNAIGWYRQAPGKERELVAAISSGSTTYYADSVKGRFTISRDNAKNTVYLQMNSLKPEDTAVYYCATTLRQYKPPSGRDYWGQGTQVTVSS”, the “polyreactivity (PSR sort gate)” value was “low polyreactivity”.
Consider “QVKLVASGGGLVQEGGSLRLSCAASGRIFGNYAMGWYRQAPGKERELVAAIDLSGDSTYYADSVKGRFTISRDNAKNTVYLQMNSLKPEDTAVYYCAADPDLLWEYSDGYYGGDGGYWGQGTQVTVSS”, for which the “polyreactivity (PSR sort gate)” value is on record as “low polyreactivity”.
As for “QVQLVDSGGGLVQAGGSLRLSCAASGRTIYLYAMACYRQAPGKERELVAAISERGGRTYYADSVKGRFTISRDNAKNTVYLQMNSLKPEDTAVYYCAAVKGYNYGYWGQGTQVTVSS”, the “polyreactivity (PSR sort gate)” value was “high polyreactivity”.
In the case of “QVQLVESGGGLDQAGGSLRLSCAASGIIITIYAMVWYRQAPGKERELVAAISFSVGSTYYADSVKGRFTISRDNAKNTFFLQMNSLKPEDTAVYYCAAESYTYPFEYWGQGTQVTVSS”, the “polyreactivity (PSR sort gate)” value is “high polyreactivity”.
“QVQLVESGGGLVQAGGSLRLSCAASGRIFSFNAMGRYRQAPGKERELVAAITWRGGSTYYADSVKGRFTISRDNAKNTVYLQMNSLKPEDTAVYYCNAYPFWRDYDYWGQGTQVTVSS”: the “polyreactivity (PSR sort gate)” value is “high polyreactivity”.
With “QVQLVESGGGLVQAGGSLRLSCAASGSTFLRYAMGWYIQAPGKERELVATISTSRGSTHYADSVKGRFTISRYNAKNTVYLQMNSLKPEDSAVYYCATRGGKWYYRTRQPYPYAMDYWGQGTQVTVSS”, the “polyreactivity (PSR sort gate)” value is “high polyreactivity”.
With “QVQLVESGGGLVQAGGSLRLSCAASGSTFQGKAMGWYRQAPGKERELVATINNDGSTYYADSVKGRFTISRDNAKNTVYLQMNSLKPEDTAVYYCAADVHRVVLEYDYWGQGTQVTVSS”, the “polyreactivity (PSR sort gate)” value is reported as “low polyreactivity”.
For “QVQLVESGGGLVQAGGSLRLSCAASGTIFTHNAMGWYRQAAGKEREFVAAISSGGSTNYADSVNGRFTISRDNAKNTVYLQMNSLKPQDTAVYYCAKSIDGWYWRRRRYDYWGHGTQVTVSS”, the “polyreactivity (PSR sort gate)” value is reported as “low polyreactivity”.
On to “QVQLVESGGGLVQAGGSLRLSCAASGRIFKRYDMGWYRQAPGKERELVAAINRSGGSTYYADSVKGRFTISRDNAKNTVYLQMNSLKPEDTAVYYCAARYRYDGRYDYWGQGTQVTVSS”, for which the “polyreactivity (PSR sort gate)” value is listed as “high polyreactivity”.
For “QVQLVESGGGLVQAGGSLRLSCAASGYTLDGYAMGWYRQAPGKEREFVAAIPFRGGGTYYADSVKGRFTISRDNAKNTDYLQMNSLKPEDTAVYYCNADTYDPFPWGSDYWGQGTQVTVSS” the value was “high polyreactivity”; for “QVQLVESGGGLVQAGGSLRLSCAASGIIFGGYDMGWYRQAPGKERELVAAISWSGGSTYYADSVKGRFTISRDNAKNTVYLQMNSLKPEDTAVYYCAAAYYAPSRDYYYWGQGTQVTVSS”, “low polyreactivity”; for “QVQLVESGGGLVQAGGSLRLSCAASGRTFSAYAMGWYRQAPGKERELVAAISTNVGSTYYADSVKGRFTISRDTAKNTVYLQMNSLKPEDTAVYYCAKSWTLSGWNYYYWGQGTQVTVSS”, “high polyreactivity”.
For “QVKLVESGGGLVQAGGSLRLSCAASGFIFSNNAMGWYRQAPGKEMELVAAITWNGGRTYYADSVKGRFTISRDNAKNTVYLQMNSLKQVDTAVYYCAAGRYYPLFYYWGLGTQVTVSS” the value was “high polyreactivity”; for “QVQLVETGGGLVQAGGSLRLSSAASGRIFRNYTMGWYRQAPGKERELVAAISSSGGRTYYADSVKGRFTISRDNEKNTVYLQMNSLKPEDTAVYYCNTDGPTWYPTYDYWGQGTQVTVSS”, “high polyreactivity”.
